According to the supplement of paper PMC10567573:

B1: NR2F2 (parent)
chain: VAHVESLQEKSQCALEEYVRSQYP
B2: SEPHS2 (parent)
chain: KASGRFGLLQGTSAETSGGLLICL

Variants of: B1
Experiment: protein stability index of a GFP-peptide fusion (GPS, HEK-293T) (PSI 1-6); higher = more stable
Settings: c terminus: a fixed tail appended
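Note: lentivirally expressed fusions sorted by FACS into six bins by GFP to DsRed ratio, PSI derived from sequencing read proportions per bin multiplied by bin number.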

Going from VAHVEQLQEKSQCALEEYVRSQYP [S6Q] to VAHNESLQEKSQCALEEYVRSQYP [V4N], the protein stability index rises from 3.69 to 4.12.

Compared with VAHDESLQEKSQCALEEYVRSQYP [V4D], VAHYESLQEKSQCALEEYVRSQYP [V4Y] is lower in protein stability index: 4.06 for the first, 2.59 for the second.

Compared with VAHKESLQEKSQCALEEYVRSQYP [V4K], VAHWESLQEKSQCALEEYVRSQYP [V4W] is lower in protein stability index: 3.79 for the first, 3.28 for the second.

Going from VAHQESLQEKSQCALEEYVRSQYP [V4Q] to VAHFESLQEKSQCALEEYVRSQYP [V4F], the protein stability index falls from 4.03 to 2.85.

First: VAHAESLQEKSQCALEEYVRSQYP [V4A]
Second: VAHEESLQEKSQCALEEYVRSQYP [V4E]
The protein stability index of the first is lower: 4.11 for the first, 4.37 for the second.

Compared with VAHHESLQEKSQCALEEYVRSQYP [V4H], VAHSESLQEKSQCALEEYVRSQYP [V4S] is higher in protein stability index: 4.06 for the first, 4.11 for the second.

Going from VAHCESLQEKSQCALEEYVRSQYP [V4C] to VAHRESLQEKSQCALEEYVRSQYP [V4R], the protein stability index rises from 3.81 to 4.06.

First: VAHIESLQEKSQCALEEYVRSQYP [V4I]
Second: VAHLESLQEKSQCALEEYVRSQYP [V4L]
The protein stability index of the first is higher: 3.45 for the first, 3.08 for the second.

Going from VAHMESLQEKSQCALEEYVRSQYP [V4M] to VAHGESLQEKSQCALEEYVRSQYP [V4G], the protein stability index rises from 3.24 to 3.94.

First: VAHPESLQEKSQCALEEYVRSQYP [V4P]
Second: VAHTESLQEKSQCALEEYVRSQYP [V4T]
The protein stability index of the first is lower: 3.54 for the first, 3.59 for the second.

Compared with VAHVESLCEKSQCALEEYVRSQYP [Q8C], VAHVESLAEKSQCALEEYVRSQYP [Q8A] is higher in protein stability index: 2.99 for the first, 3.03 for the second.

First: VAHVESLEEKSQCALEEYVRSQYP [Q8E]
Second: VAHVESLDEKSQCALEEYVRSQYP [Q8D]
The protein stability index of the first is higher: 3.99 for the first, 3.71 for the second.

Going from VAHVESLFEKSQCALEEYVRSQYP [Q8F] to TAHVESLQEKSQCALEEYVRSQYP [V1T], the protein stability index rises from 2.48 to 4.19.

Compared with AAHVESLQEKSQCALEEYVRSQYP [V1A], FAHVESLQEKSQCALEEYVRSQYP [V1F] is lower in protein stability index: 3.29 for the first, 3.03 for the second.

Going from MAHVESLQEKSQCALEEYVRSQYP [V1M] to WAHVESLQEKSQCALEEYVRSQYP [V1W], the protein stability index falls from 3.89 to 3.12.

Going from NAHVESLQEKSQCALEEYVRSQYP [V1N] to EAHVESLQEKSQCALEEYVRSQYP [V1E], the protein stability index rises from 4.01 to 4.24.

Going from HAHVESLQEKSQCALEEYVRSQYP [V1H] to RAHVESLQEKSQCALEEYVRSQYP [V1R], the protein stability index falls from 3.55 to 3.39.

Going from PAHVESLQEKSQCALEEYVRSQYP [V1P] to LAHVESLQEKSQCALEEYVRSQYP [V1L], the protein stability index falls from 4.13 to 3.5.

Going from KAHVESLQEKSQCALEEYVRSQYP [V1K] to SAHVESLQEKSQCALEEYVRSQYP [V1S], the protein stability index falls from 3.66 to 3.53.

First: IAHVESLQEKSQCALEEYVRSQYP [V1I]
Second: DAHVESLQEKSQCALEEYVRSQYP [V1D]
The protein stability index of the first is lower: 3.52 for the first, 4.15 for the second.

Compared with GAHVESLQEKSQCALEEYVRSQYP [V1G], QAHVESLQEKSQCALEEYVRSQYP [V1Q] is higher in protein stability index: 3.79 for the first, 3.89 for the second.

Going from YAHVESLQEKSQCALEEYVRSQYP [V1Y] to CAHVESLQEKSQCALEEYVRSQYP [V1C], the protein stability index falls from 3.39 to 2.66.

Variants of: B2
Experiment: as above
Settings: c terminus: a fixed tail appended

Going from KASGRFGLLQGTSAETSGGLLACL [I22A] to KASGRFGLLQGTSAETSGGLLTCL [I22T], the protein stability index rises from 1.82 to 2.33.

First: KASGRFGLLQGTSAETSGGLLGCL [I22G]
Second: KASGRFGLLQGTSAETSGGLLHCL [I22H]
The protein stability index of the first is higher: 2.47 for the first, 2.42 for the second.

Compared with KASGRFGLLQGTSAETSGGLLPCL [I22P], KASGRFGLLQGTSAETSGGLLECL [I22E] is lower in protein stability index: 3.43 for the first, 2.64 for the second.

Compared with KASGRFGLLQGTSAETSGGLLWCL [I22W], KASGRFGLLQGTSAETSGGLLFCL [I22F] is higher in protein stability index: 1.58 for the first, 4.06 for the second.

Going from KASGRFGLLQGTSAETSGGLLKCL [I22K] to KASGRFGLLQGTSAETSGGLLYCL [I22Y], the protein stability index falls from 2.14 to 1.71.

Going from KASGRFGLLQGTSAETSGGLLCCL [I22C] to KASGRFGLLQGTSAETSGGLLSCL [I22S], the protein stability index rises from 2.02 to 2.83.

Compared with KASGRFGLLQGTSAETSGGLLMCL [I22M], KASGRFGLLQGTSAETSGGLLDCL [I22D] is higher in protein stability index: 1.28 for the first, 1.72 for the second.

First: KASGRFGLLQGTSAETSGGLLICR [L24R]
Second: KASGRFGLLQGTSAETSGGLLICS [L24S]
The protein stability index of the first is higher: 2.55 for the first, 1.9 for the second.

First: KASGRFGLLQGTSAETSGGLLICK [L24K]
Second: KASGRFGLLQGTSAETSGGLLICP [L24P]
The protein stability index of the first is lower: 2.67 for the first, 2.8 for the second.

Compared with KASGRFGLLQGTSAETSGGLLICA [L24A], KASGRFGLLQGTSAETSGGLLICT [L24T] is higher in protein stability index: 1.24 for the first, 2.43 for the second.

Going from KASGRFGLLQGTSAETSGGLLICF [L24F] to KASGRFGLLQGTSAETSGGLLICD [L24D], the protein stability index falls from 4.05 to 2.99.

Going from KASGRFGLLQGTSAETSGGLLICH [L24H] to KASGRFGLLQGTSAETSGGLLICE [L24E], the protein stability index rises from 1.89 to 3.13.

Going from KASGRFGLLQGTSAETSGGLLICY [L24Y] to KASGRFGLLQGTSAETSGGLLICN [L24N], the protein stability index falls from 2.62 to 2.11.

Compared with KASGRFGLLQGTSAETSGGLLITL [C23T], KASGRFGLLQGTSAETSGGLLINL [C23N] is higher in protein stability index: 1.32 for the first, 1.79 for the second.

Compared with KASGRFGLLQGTSAETSGGLLIPL [C23P], KASGRFGLLQGTSAETSGGLLIKL [C23K] is lower in protein stability index: 2.02 for the first, 1.53 for the second.

Compared with KASGRFGLLQGTSAETSGGLLIFL [C23F], KASGRFGLLQGTSAETSGGLLIHL [C23H] is higher in protein stability index: 3.71 for the first, 4.17 for the second.

First: KASGRFGLLQGTSAETSGGLLIAL [C23A]
Second: KASGRFGLLQGTSAETSGGLLIDL [C23D]
The protein stability index of the first is lower: 1.93 for the first, 2.02 for the second.

First: KASGRFGLLQGTSAETSGGLLISL [C23S]
Second: KASGRFGLLQGTSAETSGGLLIML [C23M]
The protein stability index of the first is higher: 1.81 for the first, 1.49 for the second.

Going from KASGRFGLLQGTSAETSGGLLIQL [C23Q] to KASGRFGLLQGTSAETSGGLSICL [L21S], the protein stability index rises from 1.73 to 2.68.

First: KASGRFGLLQGTSAETSGGLEICL [L21E]
Second: KASGRFGLLQGTSAETSGGLHICL [L21H]
The protein stability index of the first is lower: 1.38 for the first, 2.21 for the second.

Going from KASGRFGLLQGTSAETSGGLQICL [L21Q] to KASGRFGLLQGTSAETSGGLNICL [L21N], the protein stability index rises from 2.08 to 2.94.

Going from KASGRFGLLQGTSAETSGGLRICL [L21R] to KASGRFGLLQGTSAETSGGLGICL [L21G], the protein stability index falls from 1.57 to 1.53.

Compared with KASGRFGLLQGTSAETSGGLPICL [L21P], KASGRFGLLQGTSAETSGGLKICL [L21K] is lower in protein stability index: 2.44 for the first, 1.45 for the second.

Going from KASGRFGLLQGTSAETSGGLTICL [L21T] to KASGRFGLLQGTSAETSGGLYICL [L21Y], the protein stability index falls from 2.38 to 1.32.

Compared with KASGRFGLLQGTSAETSGGLVICL [L21V], KASGRFGLLQGTSAETSGGLMICL [L21M] is higher in protein stability index: 2.08 for the first, 2.35 for the second.
